{
  "source": "paper PMC12153270",
  "system": "MBP-ComGC (soluble globular head) (Streptococcus sanguinis 2908?)",
  "test": "EMSA",
  "conditions": "2.5 mM Mg2+; 25 mM Tris-HCl pH 8, 2.5 mM MgCl2, 50 mM NaCl, room temperature 30 min, 120 ng pUC19 in 10 uL; 0.8% agarose in TAE",
  "data": [
    {"substance": "pUC19 plasmid", "values": [
      {"measurement": "binding", "value": "> 10", "unit": "µM"}
    ]}
  ]
}
